Results from the supplement of paper PMC9876800.

Test system: peptide library, one residue held at a place counted from the S/T acceptor
Assay: relative phosphorylation of the sub-library (ratio to the mean residue at this position); higher = residue favoured
Outline: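 In 384-well plates, purified recombinant kinases (human or orthologue constructs) were incubated for 90 min under kinase-specific conditions with 50 μM biotinylated degenerate peptide sub-libraries and 50 μM ATP spiked with γ-32P-ATP. Each sub-library fixed a single residue at one position around a central Ser/Thr. Relative sub-library phosphorylation, measured by phosphorimaging and densitometry of streptavidin membrane spots, is given as a ratio to the mean residue at that position.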

NEK9, construct: Full length (D347-732), human, sequence (Q8TD19 whole entry, looked up): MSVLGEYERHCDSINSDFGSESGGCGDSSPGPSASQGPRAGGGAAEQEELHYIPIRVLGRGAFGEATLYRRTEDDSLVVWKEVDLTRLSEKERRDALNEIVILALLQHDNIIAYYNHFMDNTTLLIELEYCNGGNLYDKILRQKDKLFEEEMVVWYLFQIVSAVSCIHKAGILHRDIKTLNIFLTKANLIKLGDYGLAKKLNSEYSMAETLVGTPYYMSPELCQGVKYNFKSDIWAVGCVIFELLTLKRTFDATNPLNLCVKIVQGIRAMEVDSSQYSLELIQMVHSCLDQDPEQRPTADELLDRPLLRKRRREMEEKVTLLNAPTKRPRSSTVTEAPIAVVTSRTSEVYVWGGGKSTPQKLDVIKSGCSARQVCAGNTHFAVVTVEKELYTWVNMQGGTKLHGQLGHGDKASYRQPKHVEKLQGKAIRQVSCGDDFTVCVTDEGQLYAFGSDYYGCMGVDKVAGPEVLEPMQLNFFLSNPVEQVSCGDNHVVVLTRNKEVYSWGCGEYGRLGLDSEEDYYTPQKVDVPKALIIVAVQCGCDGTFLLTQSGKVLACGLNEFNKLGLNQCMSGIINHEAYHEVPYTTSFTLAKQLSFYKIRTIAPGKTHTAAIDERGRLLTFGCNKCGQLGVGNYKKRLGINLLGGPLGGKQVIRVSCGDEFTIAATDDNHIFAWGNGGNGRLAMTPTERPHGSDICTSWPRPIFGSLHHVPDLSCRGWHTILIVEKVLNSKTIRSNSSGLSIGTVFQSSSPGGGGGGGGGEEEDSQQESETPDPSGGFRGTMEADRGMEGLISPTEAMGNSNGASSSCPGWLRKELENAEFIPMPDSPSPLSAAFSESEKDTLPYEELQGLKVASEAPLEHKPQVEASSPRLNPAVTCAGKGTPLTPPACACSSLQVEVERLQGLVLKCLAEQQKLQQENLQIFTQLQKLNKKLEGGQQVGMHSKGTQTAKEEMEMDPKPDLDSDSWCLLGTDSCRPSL

For “NEK9, construct: Full length (D347-732), human (from UniProt Q8TD19)”, the relative phosphorylation (A fixed, at +1) was 0.751, the relative phosphorylation (A fixed, at +2) was 1.08 and the relative phosphorylation (A fixed, at +3) was 1.02. It also gave a relative phosphorylation (A fixed, at +4) of 1.03, a relative phosphorylation (A fixed, at -1) of 1 and a relative phosphorylation (A fixed, at -2) of 1.33. The relative phosphorylation (A fixed, at -3) was 1.05, the relative phosphorylation (A fixed, at -4) was 1.11 and the relative phosphorylation (A fixed, at -5) was 1.19. The relative phosphorylation (D fixed, at +1) was 0.268, the relative phosphorylation (D fixed, at +2) was 0.44 and the relative phosphorylation (D fixed, at +3) was 0.594. It also gave a relative phosphorylation (D fixed, at +4) of 0.754, a relative phosphorylation (D fixed, at -1) of 0.889 and a relative phosphorylation (D fixed, at -2) of 1.27. For the same substance, the relative phosphorylation (D fixed, at -3) was 0.574, the relative phosphorylation (D fixed, at -4) was 1.06 and the relative phosphorylation (D fixed, at -5) was 1.04. For the same substance, the relative phosphorylation (E fixed, at +1) was 0.256, the relative phosphorylation (E fixed, at +2) was 0.294 and the relative phosphorylation (E fixed, at +3) was 0.552. The relative phosphorylation (E fixed, at +4) was 0.851, the relative phosphorylation (E fixed, at -1) was 0.854 and the relative phosphorylation (E fixed, at -2) was 0.851. The relative phosphorylation (E fixed, at -3) was 0.564, the relative phosphorylation (E fixed, at -4) was 0.889 and the relative phosphorylation (E fixed, at -5) was 0.918. For the same substance, the relative phosphorylation (F fixed, at +1) was 1.37, the relative phosphorylation (F fixed, at +2) was 0.606 and the relative phosphorylation (F fixed, at +3) was 1.04. For the same substance, the relative phosphorylation (F fixed, at +4) was 0.775, the relative phosphorylation (F fixed, at -1) was 0.843 and the relative phosphorylation (F fixed, at -2) was 1. For the same substance, the relative phosphorylation (F fixed, at -3) was 1.43, the relative phosphorylation (F fixed, at -4) was 0.9 and the relative phosphorylation (F fixed, at -5) was 1.07. It also gave a relative phosphorylation (G fixed, at +1) of 0.844, a relative phosphorylation (G fixed, at +2) of 1.04 and a relative phosphorylation (G fixed, at +3) of 1.22. For the same substance, the relative phosphorylation (G fixed, at +4) was 1.43, the relative phosphorylation (G fixed, at -1) was 0.819 and the relative phosphorylation (G fixed, at -2) was 1.28. For the same substance, the relative phosphorylation (G fixed, at -3) was 1.22, the relative phosphorylation (G fixed, at -4) was 1.3 and the relative phosphorylation (G fixed, at -5) was 1.3. The relative phosphorylation (H fixed, at +1) was 0.912, the relative phosphorylation (H fixed, at +2) was 1.42 and the relative phosphorylation (H fixed, at +3) was 1.14. For the same substance, the relative phosphorylation (H fixed, at +4) was 1.18, the relative phosphorylation (H fixed, at -1) was 1.21 and the relative phosphorylation (H fixed, at -2) was 1.08. For the same substance, the relative phosphorylation (H fixed, at -3) was 0.953, the relative phosphorylation (H fixed, at -4) was 1.09 and the relative phosphorylation (H fixed, at -5) was 1.02. For the same substance, the relative phosphorylation (I fixed, at +1) was 1.49, the relative phosphorylation (I fixed, at +2) was 0.842 and the relative phosphorylation (I fixed, at +3) was 0.95. For the same substance, the relative phosphorylation (I fixed, at +4) was 0.744, the relative phosphorylation (I fixed, at -1) was 0.759 and the relative phosphorylation (I fixed, at -2) was 0.584. The relative phosphorylation (I fixed, at -3) was 0.488, the relative phosphorylation (I fixed, at -4) was 0.78 and the relative phosphorylation (I fixed, at -5) was 0.755. The relative phosphorylation (K fixed, at +1) was 0.951, the relative phosphorylation (K fixed, at +2) was 1.69 and the relative phosphorylation (K fixed, at +3) was 1.12. The relative phosphorylation (K fixed, at +4) was 1.25, the relative phosphorylation (K fixed, at -1) was 1.12 and the relative phosphorylation (K fixed, at -2) was 0.543. It also gave a relative phosphorylation (K fixed, at -3) of 0.73, a relative phosphorylation (K fixed, at -4) of 1.01 and a relative phosphorylation (K fixed, at -5) of 1.01. The relative phosphorylation (L fixed, at +1) was 1.27, the relative phosphorylation (L fixed, at +2) was 0.611 and the relative phosphorylation (L fixed, at +3) was 1.01. For the same substance, the relative phosphorylation (L fixed, at +4) was 0.839, the relative phosphorylation (L fixed, at -1) was 1.28 and the relative phosphorylation (L fixed, at -2) was 1.21. It also gave a relative phosphorylation (L fixed, at -3) of 1.7, a relative phosphorylation (L fixed, at -4) of 0.96 and a relative phosphorylation (L fixed, at -5) of 0.824. It also gave a relative phosphorylation (M fixed, at +1) of 1.54, a relative phosphorylation (M fixed, at +2) of 0.782 and a relative phosphorylation (M fixed, at +3) of 0.956. The relative phosphorylation (M fixed, at +4) was 0.899, the relative phosphorylation (M fixed, at -1) was 1.39 and the relative phosphorylation (M fixed, at -2) was 1.53. The relative phosphorylation (M fixed, at -3) was 2.32, the relative phosphorylation (M fixed, at -4) was 1.12 and the relative phosphorylation (M fixed, at -5) was 0.953. The relative phosphorylation (N fixed, at +1) was 0.749, the relative phosphorylation (N fixed, at +2) was 1.19 and the relative phosphorylation (N fixed, at +3) was 0.97. For the same substance, the relative phosphorylation (N fixed, at +4) was 1.06, the relative phosphorylation (N fixed, at -1) was 1.3 and the relative phosphorylation (N fixed, at -2) was 1.59. The relative phosphorylation (N fixed, at -3) was 0.944, the relative phosphorylation (N fixed, at -4) was 0.928 and the relative phosphorylation (N fixed, at -5) was 1.04. For the same substance, the relative phosphorylation (P fixed, at +1) was 0.209, the relative phosphorylation (P fixed, at +2) was 0.57 and the relative phosphorylation (P fixed, at +3) was 0.921. For the same substance, the relative phosphorylation (P fixed, at +4) was 1.12, the relative phosphorylation (P fixed, at -1) was 0.426 and the relative phosphorylation (P fixed, at -2) was 0.667. For the same substance, the relative phosphorylation (P fixed, at -3) was 0.937, the relative phosphorylation (P fixed, at -4) was 1.12 and the relative phosphorylation (P fixed, at -5) was 0.991. The relative phosphorylation (Q fixed, at +1) was 1.14, the relative phosphorylation (Q fixed, at +2) was 0.892 and the relative phosphorylation (Q fixed, at +3) was 0.943. For the same substance, the relative phosphorylation (Q fixed, at +4) was 1.01, the relative phosphorylation (Q fixed, at -1) was 1.12 and the relative phosphorylation (Q fixed, at -2) was 0.996. The relative phosphorylation (Q fixed, at -3) was 0.808, the relative phosphorylation (Q fixed, at -4) was 0.85 and the relative phosphorylation (Q fixed, at -5) was 0.764. It also gave a relative phosphorylation (R fixed, at +1) of 1.42, a relative phosphorylation (R fixed, at +2) of 2.78 and a relative phosphorylation (R fixed, at +3) of 1.2. The relative phosphorylation (R fixed, at +4) was 1.38, the relative phosphorylation (R fixed, at -1) was 1.24 and the relative phosphorylation (R fixed, at -2) was 0.591. The relative phosphorylation (R fixed, at -3) was 0.748, the relative phosphorylation (R fixed, at -4) was 0.879 and the relative phosphorylation (R fixed, at -5) was 1.06. It also gave a relative phosphorylation (V fixed, at +1) of 1.3, a relative phosphorylation (V fixed, at +2) of 0.894 and a relative phosphorylation (V fixed, at +3) of 0.887. For the same substance, the relative phosphorylation (V fixed, at +4) was 0.696, the relative phosphorylation (V fixed, at -1) was 0.688 and the relative phosphorylation (V fixed, at -2) was 0.461. The relative phosphorylation (V fixed, at -3) was 0.407, the relative phosphorylation (V fixed, at -4) was 0.688 and the relative phosphorylation (V fixed, at -5) was 0.895. The relative phosphorylation (W fixed, at +1) was 1.14, the relative phosphorylation (W fixed, at +2) was 0.755 and the relative phosphorylation (W fixed, at +3) was 1.23. For the same substance, the relative phosphorylation (W fixed, at +4) was 1.13, the relative phosphorylation (W fixed, at -1) was 0.941 and the relative phosphorylation (W fixed, at -2) was 1.02. The relative phosphorylation (W fixed, at -3) was 1.14, the relative phosphorylation (W fixed, at -4) was 1.36 and the relative phosphorylation (W fixed, at -5) was 1.22. It also gave a relative phosphorylation (Y fixed, at +1) of 1.39, a relative phosphorylation (Y fixed, at +2) of 1.12 and a relative phosphorylation (Y fixed, at +3) of 1.24. The relative phosphorylation (Y fixed, at +4) was 0.855, the relative phosphorylation (Y fixed, at -1) was 1.12 and the relative phosphorylation (Y fixed, at -2) was 0.996. The relative phosphorylation (Y fixed, at -3) was 1, the relative phosphorylation (Y fixed, at -4) was 0.963 and the relative phosphorylation (Y fixed, at -5) was 0.936. For the same substance, the relative phosphorylation (pThr fixed, at +1) was 0.614, the relative phosphorylation (pThr fixed, at +2) was 0.45 and the relative phosphorylation (pThr fixed, at +3) was 0.557. For the same substance, the relative phosphorylation (pThr fixed, at +4) was 0.85, the relative phosphorylation (pThr fixed, at -1) was 0.364 and the relative phosphorylation (pThr fixed, at -2) was 0.573. The relative phosphorylation (pThr fixed, at -3) was 0.816, the relative phosphorylation (pThr fixed, at -4) was 0.901 and the relative phosphorylation (pThr fixed, at -5) was 0.836. It also gave a relative phosphorylation (pTyr fixed, at +1) of 0.517, a relative phosphorylation (pTyr fixed, at +2) of 0.399 and a relative phosphorylation (pTyr fixed, at +3) of 0.599. The relative phosphorylation (pTyr fixed, at +4) was 0.722, the relative phosphorylation (pTyr fixed, at -1) was 1.01 and the relative phosphorylation (pTyr fixed, at -2) was 0.91. For the same substance, the relative phosphorylation (pTyr fixed, at -3) was 0.826, the relative phosphorylation (pTyr fixed, at -4) was 0.787 and the relative phosphorylation (pTyr fixed, at -5) was 0.886.
